Laboratory results as given in patent publication US20110117093A1 (published 2011).
Each block holds one binder with its values, some of them ahead of it.

Legend:
[1] = biological target: T1, membrane-bound B Lymphocyte Stimulator on P388 plasma membranes (mouse, UniProt Q9WU72 1-309); experiment: phage competition ELISA
T1 construct: whole, on cells

[2] = biological target: T2, TNF-alpha (human, UniProt P01375 77-233); experiment: phage ELISA
T2 construct: also called TNFα; Tumour Necrosis Factor-alpha

[3] = biological target: T3, B Lymphocyte Stimulator, human, soluble form (human, UniProt Q9Y275 134-285); experiment: phage ELISA
T3 construct: also called BLyS; immobilized B Lymphocyte Stimulator

[4] = biological target: T4, biotinylated B Lymphocyte Stimulator (soluble form) (human, UniProt Q9Y275 134-285, biotinylated with NHS-biotin (20:1 biotin:protein)); experiment: phage scFv, IM9 receptor binding inhibition
T4 construct: The biotinylation protocol covers human or mouse protein; also called bio-B Lymphocyte Stimulator; free B Lymphocyte Stimulator
Method: Plates were washed three times in PBST and three times in PBS, tapped dry and 50 μl of streptavidin-Delfia (Wallac) was added to each well at 1:1000 dilution in the Manufacturer's assay buffer. The plates were then incubated at room temperature for 1 hour and washed six times in Delfia wash solution (Wallac). After tapping the plates dry, 100 μl per well of Delfia enhancement solution (Wallac) was added. The plates were gently tapped to encourage micelle formation, incubated at room temperature for 10 minutes, and fluorescence read on a Wallac 1420 workstation at […].
All of the unique phage scFvs from panel 2 were assessed for their ability to inhibit B Lymphocyte Stimulator binding to its cognate receptor on IM9 cells. The biotinylation of B Lymphocyte Stimulator, maintenance of IM9 cells and receptor binding inhibition assay were performed as described in Example 3.

[5] = biological target: T5, biotinylated B Lymphocyte Stimulator (human, soluble form) (human, UniProt Q9Y275 134-285, NHS-biotin labelled at a molar ratio of 20:1 biotin:B Lymphocyte Stimulator); experiment: purified scFv; inhibition of biotinylated BLyS binding to IM9 cells
T5 construct: also called bio-B Lymphocyte Stimulator

T1 sequence (Q9WU72 whole entry): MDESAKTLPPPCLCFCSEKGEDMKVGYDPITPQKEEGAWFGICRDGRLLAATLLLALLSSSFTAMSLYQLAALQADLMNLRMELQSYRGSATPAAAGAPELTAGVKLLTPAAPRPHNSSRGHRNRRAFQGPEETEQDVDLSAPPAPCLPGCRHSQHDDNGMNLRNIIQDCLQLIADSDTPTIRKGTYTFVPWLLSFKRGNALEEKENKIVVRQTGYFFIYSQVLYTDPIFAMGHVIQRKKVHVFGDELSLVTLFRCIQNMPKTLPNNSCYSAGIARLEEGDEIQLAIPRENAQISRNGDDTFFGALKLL
T2 sequence (P01375 77-233 limits assumed): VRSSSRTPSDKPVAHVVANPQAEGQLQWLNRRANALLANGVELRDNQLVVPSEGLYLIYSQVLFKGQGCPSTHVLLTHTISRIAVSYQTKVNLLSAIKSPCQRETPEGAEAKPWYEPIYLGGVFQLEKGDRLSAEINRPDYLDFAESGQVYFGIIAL

- binding result [1]: binds
B1: I080B01 (scFv)
scFv: QVQLVQSGAEVKKPGASVKVSCKASGYTFTNYYMHWVRQAPGQGLEWMGIINPRDVSTTYAQKFQGRATMTRDTSTSTVYMELNSLRSEDTAVYYCAREYSGYHYVEGGSYAMDVWGQGTMVTVSSGGGGSGGGGSGGGGSALSYVLTQPPSASGTPGQRVTITCSGSSSNIGNYYVNWYQQVSGTAPKLIIYRNNQRPSGVPDRFSGSKSGASASLAISGLRSEDEADYFCAAWDDSLREFVFGTGTKVTVLG

- binding result [2]: no binding
B2: I018D07 (scFv)
scFv: GVQLVQSGPEVKKPGASVIVSCTASGYTFTSYGVSWVRQAPGQGLEWIGWISAHNGQTKYAEKFQGRVTMTRNTSISTAYMELSSLRSEDTAVYYCARDGSYDILTGYYIDNYMDVWGKGTMVTVSSGGGGSGGGGSGGGGSSELTQDPAVSVALGQTVRITCQGDSLRSYYTNWFQQKPGQAPLLVVYAKNKRPSGIPDRFSGSSSGNTASLTITGAQAEDEADYYCHSRDSSGNHVLFGGGTKLTVLG

- binding result [3]: binds
B3: I026C04-K (scFv)
scFv: QVQLVQSGAEVKKPGSSVKVSCRASGGSFNKHAISWVRQAPGRGLEWMGGILPMYGTANYAQKFQGRVTITADKLTNTVYMDLSRLRYEDTAVYYCARELGLSIVGATTGALDMWGKGTLVTVSSGGGGSGGGGSGGGGSAQSVLTQPPSVSAAPGQKVTISCSGSSSNIGNNYVSWYQQIPGTAPKLLIYENNKRPSGIPDRFSGSKSGASATLDITGLQTGDEADYYCGTWHSSQVVFGGGTKLTVLG

- binding result [4]: binds
B4: I026C04-K (scFv)
scFv: QVQLVQSGAEVKKPGSSVKVSCRASGGSFNKHAISWVRQAPGRGLEWMGGILPMYGTANYAQKFQGRVTITADKLTNTVYMDLSRLRYEDTAVYYCARELGLSIVGATTGALDMWGKGTLVTVSSGGGGSGGGGSGGGGSAQSVLTQPPSVSAAPGQKVTISCSGSSSNIGNNYVSWYQQIPGTAPKLLIYENNKRPSGIPDRFSGSKSGASATLDITGLQTGDEADYYCGTWHSSQVVFGGGTKLTVLG

- IC50 [5]: 0.062 µM
B5: I068C06 (scFv)
scFv: EVQLVQSGAEVKKPGSSVKVSCKASGGTVSSRTISWVRQAPGQGLEWMGGSLPPSGAPIYAQKFQGRVAITADALTNTAFMELRSLKSDDTAVYYCARDQGRYLDLWGKGTLVTVSSGGGGSGGGGSGGGGSAQAVLTQPSSVSGAPGQRVTISCTGSRSNIGAGYDVHWYQQLPGTAPKLLIYGNSNRPSGVPDRFSGSKSGTSASLAITGLQADDEADYYCQSYDTSLRGLFGTGTKVTVLG
notes: also called I0068C06; 0068C06

- binding result [1]: binds
B6: I079F08 (scFv)
scFv: QMQLVQSGGGVVQPGRSLRLSCAASGFTFSSYGMHWVRQAPGKGLEWVAVISYDGSIKYYADSVKGRFTISRDNSKNTLYLQMNSLRAEDTAVYYCARYYYHSSGSDAFDIWGQGTLVTVPSGGGGSGGGGSGGGGSQSVLTQPPSASGTPGQRVTISCSGSSSNIGSNTVNWYQRLPGAAPQLLIYNNNQRPSGVPDRFSGSKSGTSASLAISGLQSEDEADYYCAAWDDSLNGWVFGGGTKLTVLG

- binding result [1]: binds
B7: I079B04 (scFv)
scFv: EVQLVESGGGLVQPGGSLRLSCAASGFTFSDYAMSWVRQAPGKGLEWVSAISGSGGSTSYADSVKGRFTISRDNSKNTLYLQMNSLRAEDTAVYYCASLLSDYWGRGTTVTVSSGGGGSGGGGSGGGGSQSVLTQPASVSGSPGQSITISCTGTSSDVGGYNYVSWYQQHPGKAPKLMIYEGSKRPSGVSYRFSGSKSGNTASLTISGLQAEDEADYYCSSYTTRSTRVFGGGTKLTVLG
